# Test results: US20230071765A1, “COMPOSITIONS HAVING THIOREDOXIN ACTIVITY AND RELATED METHODS” (ORPRO THERAPEUTICS, INC., priority 2020, published 2023)
# Where a chain is given by its changes, count along the chain named.
# B1: DNase: recombinant human DNase I (protein, UniProt P24855 23-282, looked up)
# Deoxyribonuclease-1: LKIAAFNIQTFGETKMSNATLVSYIVQILSRYDIALVQEVRDSHLTAVGKLLDNLNQDAPDTYHYVVSEPLGRNSYKERYLFVYRPDQVSAVDSYYYDDGCEPCGNDTFNREPAIVRFFSRFTEVREFAIVPLHAAPGDAVAEIDALYDVYLDVQEKWGLEDVMLMGDFNAGCSYVRPSQWSSIRLWTSPTFQWLIPDSADTTATPTHCAYDRIVVAGMLLRGAVVPDSALPFNFQAAYGLSDQLAQAISDHYPVEVMLK
# B2: thioredoxin: native human thioredoxin-1, 12 kDa redox protein with Cys-Gly-Pro-Cys active site (protein)
# chain: VKQIESKTAFQEALDAAGDKLVVVDFSATWCGPCKMIKPFFHSLSEKYSNVIFLEVDVDDCQDVASECEVKCMPTFQFFKKGQKVGEFSGANKEKLEATINELV
# B3: ORP-100: thioredoxin protein having a monothiol active site in which the cysteine at position 35 has been replaced with serine (protein, UniProt P10599 2-105, looked up, variant C35S)
# Thioredoxin: B2 chain with C34S
# B4: oxidized thioredoxin: oxidized thioredoxin inactive protein control of Rancourt et al. 2007 (protein, UniProt P10599 2-105, looked up)
# Thioredoxin: B2 chain
# modifications: oxidized
# B5: oxidized ORP-100: oxidized form of ORP-100, control lacking thioredoxin activity (protein, UniProt P10599 2-105, looked up, variant C35S)
# Thioredoxin: B2 chain with C34S
# modifications: oxidized
# Experiments:
# [1] = tested on: CF patient sputum on wild type rat trachea; assay: CF sputum transport ex vivo on excised rat trachea (μOCT); parameters: species or system human sputum; conditions: sputum treated 2 hrs; ORP100S 3 mM, DTT 1.6 mM, DNase 10 or 25 μg/ml; PBS 0.97±0.17
# Experimental: To determine the effect of ORP100S on CF sputum transportability, sputum specimens spontaneously expectorated from 4 CF patients hospitalized for pulmonary exacerbation were collected and stored at 4° C. before being divided into 200 μL aliquots and treated with ORP100S (3 mM), PBS, DTT (1.6 mM), or DNase (10 or 25 μg/ml) on the day of or day following collection. Upon treatment, sputum aliquots were placed in a 37° C. water bath for 2 hrs and then applied (3 μl per sample) for μOCT imaging to the distal end of trachea excised from adult non-CF rats. Trachea were washed 2× with 500 μl of PBS before sputum addition. Sample conditions were applied in triplicate in random order at distinct anatomic locations—2 washes using 500 μl of PBS were performed between each sample addition—and at least 3 images were collected from each region of interest. Confirmation of trachea viability was obtained by imaging with PBS upon completion of the experiment.
# One-micron resolution spectral domain μOCT was used to obtain measurements of mucociliary transport (MCT) rate and ciliary beat frequency (CBF) in HBE monolayers and of MCT rate of sputum ex vivo. This first-in-kind, high-speed (40 frames per second, 512 lines per frame) microscopic reflectance imaging modality enables simultaneous anatomic imaging in cell cultures and intact tissues that readily distinguishes the properties of CF compared to normal epithelia (Liu L, Chu K K, Houser G H, Diephuis B J, Li Y, Wilsterman E J, Shastry S, Dierksen G, Birket S E, Mazur M, et al., 2013, Method for quantitative study of airway functional microanatomy using micro-optical coherence tomography, PLoS One 8(1):e54473; Tuggle K L, Birket S E, Cui X, Hong J, Warren J, Reid L, Chambers A, Ji D, Gamber K, Chu K K, et al., 2014, Characterization of defects in ion transport and tissue development in Cystic Fibrosis Transmembrane Conductance Regulator (CFTR)-knockout rats. PLoS One 9(3):e91253). In addition to MCT rate and CBF, μOCT also has the capability to assess physical characteristics of the airway surface liquid. Images were captured, and MCT rate and CBF calculated, as described in the preceding references.
# The effect of ORP100S on mucus clearance using intact rat trachea, which include the complexities of the airway surface such as gland expression of a fully differentiated mucosal surface, was further evaluated. […] MCT was measured by projecting a cross-sectional line through the mucus through time, with the slope of the particle trajectories indicating velocity. […]
# pediatric patients = conditions: human, in vivo; cited from earlier work
# [2] = lyophilized from 9% sucrose, 1.7 mM EDTA, pH 5.2; 40° C. for six months; cited from earlier work
# rats = conditions: rat, in vivo; cited from earlier work
# [3] = thiol pKa (acid-dissociation constant); type: physicochemical; conditions: verified experimentally, data not shown
# Excerpt: The human CF airway surface liquid is approximately 0.8 pH units more acidic than that of unaffected individuals due to the loss of bicarbonate-mediated buffering of proton secretion (Garland A L, Walton W G, Coakley R D, et al., 2013, Molecular basis for pH-dependent mucosal dehydration in cystic fibrosis airways. PNAS 110:15973-8; Shah V S, Meyerholz D K, Tang X X, et al., 2016, Airway acidification initiates host defense abnormalities in cystic fibrosis mice, Science 351:503-7). This has consequences for the clinical use of reducing agents to treat condensed, abnormal mucus. […] Cys thiol pKa values range from pH 8.5 (cysteamine) to pH 9.5 (NAC). In marked contrast to these classical thiols, the structurally-stabilized pKa of the Trx active site Cys32 is two to three logs lower (pH 6.1-6.3), allowing high activity even at acidic CF airway pH (FIG. 2).
# [4] = tested on: IL-6 and TNF-alpha in HBE-ALI from healthy and CF donors; assay: inflammatory cytokine release in HBE-ALI cultures (ELISA); type: cell-based, human; conditions: for effect on the inflammatory effect of saline: CF HBE-ALI
# Experimental: Nasal airway epithelial cells from normal healthy volunteers or CF subjects were cultured in serum-free media at an air-liquid interface with mucociliary differentiation, based on methods adapted from the approach of Schlegel and colleagues (Suprynowicz, F. A., et al., Proc Natl Acad Sci USA, 2012, 109(49): p. 20035-40; Becker, M. N., et al., Am J Respir Crit Care Med, 2004, 169(5): p. 645-53). A number of unique CF and healthy control specimens were collected, expanded, and cryopreserved using this technique. 30 wells were cultured to differentiation at ALI for over 30 days from each of three unique normal or CF donors (homozygous for F508del). Triplicate cultures were exposed at the apical surface to PBS, native Trx, or ORP-100 and both apical and basolateral media samples were collected at 4 and 24 hours after challenge. Apical collection occurred by placing 200 uL of sterile PBS on the apical surface and recovering this after 15 min incubation. ELISA for IL-6 was performed for each sample in duplicate and others were measured using a multiplexed assay. Media was centrifuged to remove debris and stored at −80 C until ELISA analysis.
# FIG. 8: Levels of IL-6 or TNFα induced after 24 hr in the basolateral ALI media of primary HBE cultures from nasal epithelia of non-CF (left series of bars) and CF donors (right series of bars). Delivery: apical-surface bolus application for 15 min of 200 uL volumes of control or test article solutions. PBS: 0.9% phosphate-buffered saline negative vehicle control (black bars); ORP100-1000: 1 mM ORP-100 in PBS (solid dark bars); […] uM ORP-100 in PBS (solid light bars); Trx-1000: 1 mM native thioredoxin-1 in PBS (dark hatched bars); Trx-100: 100 uM native thioredoxin-1 in PBS (light hatched bars). All concentrations reflect volumes delivered to the HBE apical surface.
# Sprague-Dawley rats = assay: nebulized aerosol inhalation in rats, inflammatory potential and toxicity; type: in vivo, rat; conditions: for neutrophil influx (sucrose/EDTA formulation effect): nebulized aerosol; for adverse test article effects (clinical observations, BALF chemistry, cell count, differential, lung cytokines, macroscopic and microscopic findings): target delivered doses 10 mg/kg and 40 mg/kg, aerosol, 1, 4 or 20 hours post exposure
# Experimental: This example evaluated and compared the in vivo inflammatory potential among three forms of C35S monothiol Trx (oxidized ORP-100, reduced ORP-100, and reduced ORP100S) formulated in the sucrose/EDTA formulation composition described in PCT WO 2006/090127 and delivered to normal rats as nebulized aerosols at doses of […] and 40 mg/kg.
# All three forms of ORP-100 were lyophilized following reduction with DTT and formulated in sucrose buffer (9% sucrose 1.17 mM EDTA pH 5.2). All test articles were evaluated at low (10 mg/kg) and high (40 mg/kg) target delivered doses. The test articles were administered to Charles River Sprague-Dawley rats via inhalation as an aerosol. The aerosol of each of the test articles was produced by a commercially available vibrating mesh nebulizer whose output was attached to a nose-only exposure system.
# Target doses were achieved via modulation of the aerosol exposure time while maintaining the aerosol concentration constant. Animals in Low Dose groups received a single dose of test article during a 20 minute exposure to achieve a target delivered dose of 10 mg/kg and deposited dose of 1 mg/kg. Animals in High Dose groups received a single dose of test article during a 75 minute exposure to achieve a target delivered dose of 40 mg/kg and target deposited dose of 4 mg/kg.
# Animals in each study group were evaluated for potential toxicity by measuring various parameters including: clinical signs, body weight, clinical pathology (BALF cell counts, LDH and albumin measurements), lung tissue cytokines, lung weights, gross pathology, and microscopic pathology of respiratory target tissues. Additionally, three animals in each Low Dose group had lung tissues collected for immunohistochemistry (Alizèe Pathology, Thurmont, M D). Three (3) animals in each Low Dose group were to be euthanized at 1 hour and 4 hours post exposure for blood and tissue collections. Four (4) animals in each High Dose group were euthanized at 4 and 20 hours post exposure for blood and tissue collections.
# [5] = stability analysis, lyophilized vs solution (DTNB and SEC-HPLC); type: physicochemical; conditions: lyophilized form, six months at 40° C.
# Experimental: Prior work, e.g. WO 2006/090127, teaches compositions for maintenance of thioredoxin in the reduced state. Significant experimentation was required to derive compositions able to keep thioredoxin reduced during storage, and these compositions were complex and required saccharide derivatives and EDTA as excipients. […] ORP-100 and ORP100S proteins were reduced with 100 mM DTT and exchanged over a NAP-5 column into volatile 20 mM ammonium acetate buffer at pH 5.5 to remove residual reductant. Half of the material was frozen at −80° C. then lyophilized while the remainder was kept in solution at either 5° C. or 40° C. for various time points (“PH5.5”). Lyophilized protein was reconstituted back into 20 mM ammonium acetate pH 5.5 immediately prior to evaluation at each time point (“Lyophilized”). Stability was assessed by measuring both free SH groups (DTNB chromogenic assay) and the percent monomers (SEC-HPLC).
# For FIG. 3: PH5.5: ORP-100 or ORP100S protein maintained in liquid formulation of 20 mM ammonium acetate, pH 5.5 for 0, 3, 7, 14, 21, 28, 90, or 180 days. Lyophilized: ORP-100 or ORP100S protein stored in the lyophilized form at 5° C. or 40° C. for the 0, 3, 7, 14, 21, 28, 90, or 180 days and assayed following reconstitution in 20 mM ammonium acetate, pH 5.5. Percent free sulfhydryl (reduction state) at 5° C. Second panel: Percent monomer determined by SEC assay at 5° C. Third panel: Percent free sulfhydryl at 40° C. Fourth panel: Percent monomer determined by SEC assay at 40° C.
molecule,measurement,setting,value
B1,MCT rate of treated sputum,[1],2.30±0.28 mm/min
same,pediatric patients with clinical deterioration in lung function,pediatric patients,6-30%
B2,retention of starting activity,[2],almost complete retention of starting activity
same,neutrophil influx and inflammatory cytokine release,rats,high levels of neutrophil influx and inflammatory cytokine release
B3,pKa compared to native Trx,[3],same pKa as native Trx
same,effect on the inflammatory effect of saline,[4],abrogated the inflammatory effect of saline
same,anti-inflammatory effect vs. PBS vehicle alone,"[4]; concentrations above 100 uM, in normal (isotonic) PBS",significant anti-inflammatory effect
same,induction of IL-6 and TNF-alpha,"[4]; reduced form, in PBS, apical application",non-inflammatory
same,"differences in BALF LDH, albumin, cell counts, differential counts and lung tissue cytokines vs. oxidized ORP-100 control groups",Sprague-Dawley rats; low and high dose aerosol,unremarkable
same,neutrophil influx (sucrose/EDTA formulation effect),Sprague-Dawley rats,partially able to mitigate the formulation effect
same,"adverse test article effects (clinical observations, BALF chemistry, cell count, differential, lung cytokines, macroscopic and microscopic findings)",Sprague-Dawley rats,no evidence of adverse test article effects
same,"storage stability (free SH, percent monomer)",[5],excellent storage stability
B4,BALF cell count and cytokine results,rats,identical BALF cell count and cytokine results as normal saline alone
B5,effect on the inflammatory effect of saline,[4],not
same,neutrophil influx (sucrose/EDTA formulation effect),Sprague-Dawley rats,induced
same,"adverse test article effects (clinical observations, BALF chemistry, cell count, differential, lung cytokines, macroscopic and microscopic findings)",Sprague-Dawley rats,no evidence of adverse test article effects
